“And” between values parts separate entries of the source, which are not always exact repeats. Equal values may be shown once.
Key:
[1] = molecular target: T1, human CD3 on Jurkat cells (human, UniProt P07766 23-207; P04234 22-171; P09693 23-182); assay: FACS, Jurkat cells;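 further: flow cytometric binding of bispecific antibodies to Jurkat T cells, threefold serial dilutions incubated half an hour in the cold, EC50 taken from the fitted binding curve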
T1 construct: whole, on cells; CD3 complex as on Jurkat (Clone E6-1) cells; also called CD3 expressing cells (Jurkat)

[2] = molecular target: T2, human CD3ε/δ (ACRO systems, CDD-H52W1) (human, UniProt P07766 23-126; P04234 22-105); assay: BLI, antibody captured, antigen in solution;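 further: bispecific antibodies captured on AHIC biosensors to a 1.5 nm loading signal, in PBST with 0.02% detergent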
T2 construct: Bought protein; also called human CD3ϵ/CD3δ; human CD3 epsilon/delta antigen
Protocol: The bispecific antibodies were diluted to 5 ag/ml, and 1.5 nm protein was coupled to the surface of the AHIC sensor chip through 0.02% PBST.

EC50 [1]	Kd [2]	koff [2]	kon [2]	Binder
0.917 µg/mL and 7.06 nM	2.82 nM	0.000642 s⁻¹	228000 M⁻¹ s⁻¹	Fab (Heavy)-Knob+Fab (Light)-Hole-CEA (208) (bispecific antibody, human IgG4 S228P, kappa, F234A L235A, Two-chain format; human IgG4 knob-into-hole Fc) heavy: EVKLLESGGGLVQPKGSLKLSCAASGFTFNTYAMNWVRQAPGKGLEWVARIRSKYNNYATYYADSVKDRFTISRDDSQSILYLQMNNLKTEDTAMYYCVRHGNFGNSYVSWFAYWGQGTLVTVSSASTKGPSVFPLAPCSRSTSESTAALGCLVKDYFPEPVTVSWNSGALTSGVHTFPAVLQSSGLYSLSSVVTVPSSSLGTKTYTCNVDHKPSNTKVDKRVESKYGPPCPPCPAPEAAGGPSVFLFPPKPKDTLMISRTPEVTCVVVDVSQEDPEVQFNWYVDGVEVHNAKTKPREEQFNSTYRVVSVLTVLHQDWLNGKEYKCKVSNKGLPSSIEKTISKAKGQPREPQVYTLPPCQEEMTKNQVSLWCLVKGFYPSDIAVEWESNGQPENNYKTTPPVLDSDGSFFLYSRLTVDKSRWQEGNVFSCSVMHEALHNHYTQKSLSLSL QAVVTQESALTTSPGETVTLTCRSSTGAVTTSNYANWVQEKPDHLFTGLIGGTNKRAPGVPARFSGSLIGDKAALTITGAQTEDEAIYFCALWYSNLWVFGGGTKVEIKRTVAAPSVFIFPPSDEQLKSGTASVVCLLNNFYPREAKVQWKVDNALQSGNSQESVTEQDSKDSTYSLSSTLTLSKADYEKHKVYACEVTHQGLSSPVTKSFNRGECESKYGPPCPPCPAPEAAGGPSVFLFPPKPKDTLMISRTPEVTCVVVDVSQEDPEVQFNWYVDGVEVHNAKTKPREEQFNSTYRVVSVLTVLHQDWLNGKEYKCKVSNKGLPSSIEKTISKAKGQPREPQVCTLPPSQEEMTKNQVSLSCAVKGFYPSDIAVEWESNGQPENNYKTTPPVLDSDGSFFLVSRLTVDKSRWQEGNVFSCSVMHEALHNRFTQKSLSLSLGGGGSGGGGSEVQLVESGGGFVQAGESLTLSCTSSTLTFTPYRMAWYRQAPGKQRDLVADISSGDGRTTNYADFAKGRFTISRDNIKNTVFLRMTNLKPEDTAVYYCNTFVSFVGIARSWGQGTQVTVSS
0.866 µg/mL and 6.66 nM	2.01 nM	0.000338 s⁻¹	168000 M⁻¹ s⁻¹	Fab (Light)-Knob-CEA+Fab (Heavy)-Hole (209) (bispecific antibody, human IgG4 S228P, kappa, F234A L235A, Two-chain format; human IgG4 knob-into-hole Fc) QAVVTQESALTTSPGETVTLTCRSSTGAVTTSNYANWVQEKPDHLFTGLIGGTNKRAPGVPARFSGSLIGDKAALTITGAQTEDEAIYFCALWYSNLWVFGGGTKVEIKRTVAAPSVFIFPPSDEQLKSGTASVVCLLNNFYPREAKVQWKVDNALQSGNSQESVTEQDSKDSTYSLSSTLTLSKADYEKHKVYACEVTHQGLSSPVTKSFNRGECESKYGPPCPPCPAPEAAGGPSVFLFPPKPKDTLMISRTPEVTCVVVDVSQEDPEVQFNWYVDGVEVHNAKTKPREEQFNSTYRVVSVLTVLHQDWLNGKEYKCKVSNKGLPSSIEKTISKAKGQPREPQVYTLPPCQEEMTKNQVSLWCLVKGFYPSDIAVEWESNGQPENNYKTTPPVLDSDGSFFLYSRLTVDKSRWQEGNVFSCSVMHEALHNHYTQKSLSLSLGGGGSGGGGSEVQLVESGGGFVQAGESLTLSCTSSTLTFTPYRMAWYRQAPGKQRDLVADISSGDGRTTNYADFAKGRFTISRDNIKNTVFLRMTNLKPEDTAVYYCNTFVSFVGIARSWGQGTQVTVSS heavy: EVKLLESGGGLVQPKGSLKLSCAASGFTFNTYAMNWVRQAPGKGLEWVARIRSKYNNYATYYADSVKDRFTISRDDSQSILYLQMNNLKTEDTAMYYCVRHGNFGNSYVSWFAYWGQGTLVTVSSASTKGPSVFPLAPCSRSTSESTAALGCLVKDYFPEPVTVSWNSGALTSGVHTFPAVLQSSGLYSLSSVVTVPSSSLGTKTYTCNVDHKPSNTKVDKRVESKYGPPCPPCPAPEAAGGPSVFLFPPKPKDTLMISRTPEVTCVVVDVSQEDPEVQFNWYVDGVEVHNAKTKPREEQFNSTYRVVSVLTVLHQDWLNGKEYKCKVSNKGLPSSIEKTISKAKGQPREPQVCTLPPSQEEMTKNQVSLSCAVKGFYPSDIAVEWESNGQPENNYKTTPPVLDSDGSFFLVSRLTVDKSRWQEGNVFSCSVMHEALHNRFTQKSLSLSL
2.8 µg/mL and 21.6 nM	2.23 nM	0.000803 s⁻¹	360000 M⁻¹ s⁻¹	CEA-Knob-Fab-+Hole (107) (bispecific antibody, human IgG4 S228P, kappa, F234A L235A, Anti-CD3 TA1 Fab + anti-CEA VHH C17 on human IgG4 knob-into-hole Fc) heavy: EVQLVESGGGFVQAGESLTLSCTSSTLTFTPYRMAWYRQAPGKQRDLVADISSGDGRTTNYADFAKGRFTISRDNIKNTVFLRMTNLKPEDTAVYYCNTFVSFVGIARSWGQGTQVTVSSESKYGPPCPPCPAPEAAGGPSVFLFPPKPKDTLMISRTPEVTCVVVDVSQEDPEVQFNWYVDGVEVHNAKTKPREEQFNSTYRVVSVLTVLHQDWLNGKEYKCKVSNKGLPSSIEKTISKAKGQPREPQVYTLPPCQEEMTKNQVSLWCLVKGFYPSDIAVEWESNGQPENNYKTTPPVLDSDGSFFLYSRLTVDKSRWQEGNVFSCSVMHEALHNHYTQKSLSLSLGGGGSGGGGEVKLLESGGGLVQPKGSLKLSCAASGFTFNTYAMNWVRQAPGKGLEWVARIRSKYNNYATYYADSVKDRFTISRDDSQSILYLQMNNLKTEDTAMYYCVRHGNFGNSYVSWFAYWGQGTLVTVSSASTKGPSVFPLAPCSRSTSESTAALGCLVKDYFPEPVTVSWNSGALTSGVHTFPAVLQSSGLYSLSSVVTVPSSSLGTKTYTCNVDHKPSNTKVDKRV ESKYGPPCPPCPAPEAAGGPSVFLFPPKPKDTLMISRTPEVTCVVVDVSQEDPEVQFNWYVDGVEVHNAKTKPREEQFNSTYRVVSVLTVLHQDWLNGKEYKCKVSNKGLPSSIEKTISKAKGQPREPQVCTLPPSQEEMTKNQVSLSCAVKGFYPSDIAVEWESNGQPENNYKTTPPVLDSDGSFFLVSRLTVDKSRWQEGNVFSCSVMHEALHNRFTQKSLSLSL light: QAVVTQESALTTSPGETVTLTCRSSTGAVTTSNYANWVQEKPDHLFTGLIGGTNKRAPGVPARFSGSLIGDKAALTITGAQTEDEAIYFCALWYSNLWVFGGGTKVEIKRTVAAPSVFIFPPSDEQLKSGTASVVCLLNNFYPREAKVQWKVDNALQSGNSQESVTEQDSKDSTYSLSSTLTLSKADYEKHKVYACEVTHQGLSSPVTKSFNRGEC
5.53 µg/mL and 42.5 nM	1.79 nM	0.00047 s⁻¹	262000 M⁻¹ s⁻¹	Knob-Fab+CEA-Hole (108) (bispecific antibody, human IgG4 S228P, kappa, F234A L235A, Anti-CD3 TA1 Fab + anti-CEA VHH C17 on human IgG4 knob-into-hole Fc) heavy: ESKYGPPCPPCPAPEAAGGPSVFLFPPKPKDTLMISRTPEVTCVVVDVSQEDPEVQFNWYVDGVEVHNAKTKPREEQFNSTYRVVSVLTVLHQDWLNGKEYKCKVSNKGLPSSIEKTISKAKGQPREPQVYTLPPCQEEMTKNQVSLWCLVKGFYPSDIAVEWESNGQPENNYKTTPPVLDSDGSFFLYSRLTVDKSRWQEGNVFSCSVMHEALHNHYTQKSLSLSLGGGGSGGGGSEVKLLESGGGLVQPKGSLKLSCAASGFTFNTYAMNWVRQAPGKGLEWVARIRSKYNNYATYYADSVKDRFTISRDDSQSILYLQMNNLKTEDTAMYYCVRHGNFGNSYVSWFAYWGQGTLVTVSSASTKGPSVFPLAPCSRSTSESTAALGCLVKDYFPEPVTVSWNSGALTSGVHTFPAVLQSSGLYSLSSVVTVPSSSLGTKTYTCNVDHKPSNTKVDKRV EVQLVESGGGFVQAGESLTLSCTSSTLTFTPYRMAWYRQAPGKQRDLVADISSGDGRTTNYADFAKGRFTISRDNIKNTVFLRMTNLKPEDTAVYYCNTFVSFVGIARSWGQGTQVTVSSESKYGPPCPPCPAPEAAGGPSVFLFPPKPKDTLMISRTPEVTCVVVDVSQEDPEVQFNWYVDGVEVHNAKTKPREEQFNSTYRVVSVLTVLHQDWLNGKEYKCKVSNKGLPSSIEKTISKAKGQPREPQVCTLPPSQEEMTKNQVSLSCAVKGFYPSDIAVEWESNGQPENNYKTTPPVLDSDGSFFLVSRLTVDKSRWQEGNVFSCSVMHEALHNRFTQKSLSLSL light: QAVVTQESALTTSPGETVTLTCRSSTGAVTTSNYANWVQEKPDHLFTGLIGGTNKRAPGVPARFSGSLIGDKAALTITGAQTEDEAIYFCALWYSNLWVFGGGTKVEIKRTVAAPSVFIFPPSDEQLKSGTASVVCLLNNFYPREAKVQWKVDNALQSGNSQESVTEQDSKDSTYSLSSTLTLSKADYEKHKVYACEVTHQGLSSPVTKSFNRGEC

From patent US20240400715A1 (VIBRANT PHARMA, published 2024)
